Experimental data from US6858775B1, “Method for generating split, non-transferable genes that are able to express an active protein product” (New England Biolabs, Inc., priority 1999, dated 2005).

Assays:
[1] = system: E. coli ER2744; assay: Plate assay: rescue of E. coli ER2744 growth on valine or valine plus SM M9 plates; format: cell-based
Source text: E. coli ER2744 strain was employed as an in vivo model system for assessing the activity of the herbicide resistant E. coli ALSII gene, genetically modified by a linker insertion between Q327 and C328. E. coli ER2744 is derived from wild type E. coli K12 that contains the active ALSI and ALSIII enzymes, but not an active ALSII. ALSI and ALSIII are two isoforms of ALS genes in E. coli, which are crucial for the synthesis of valine, isoleucine and leucine (LaRossa and Schloss, J. Biol. Chem. 259:8753-8757 (1984)). Their activity is sensitive to the valine feedback inhibition. Therefore, by saturating the growth medium with 100 μg/ml valine (Sigma, St. Louis, Mo.), ALSI and III will be inhibited and the cells will stop growing. By introducing a recombinant herbicide resistant ALSII (ALSIIm) into E. coli cells, their growth will be rescued since ALSII is resistant to valine inhibition.
Plate assays were conducted to examine the capability of ALSIIm-14 to rescue E. coli ER2744 from valine (100 μg/ml) or valine plus herbicide SM (50 μg/ml, Supelco Park, Bellefonte, Pa.) saturated M9 minimum medium plate (Sambrook et al., (1989)). The M9 medium contains 2 μg/ml Thiamin, 2 mM MgSO4, 0.1 mM CaCl2, 0.2% glucose, 50 μg/ml of kanamycin, 100 μg/ml of ampicillin and 0.3 mM IPTG. For the plating assay, 100 μl of 25 mg/ml Valine with or without 50 μl of 25 μg/ml Sulfometuron methyl (SM) was spread on M9 selection plate. To assay bacterial growth, overnight cultures were streaked on M9 plates with or without valine and/or SM. The plates were incubated at various temperatures (as indicated in FIG. 7) for 48 to 72 hrs before the pictures were taken. On the plate supplemented with valine, cells expressing either ALSII, ALSIIm or ALSIIm-14 were able to grow (FIG. 7-a). However, when both valine and SM was applied, only strains expressing herbicide-resistant ALSIIm or ALSIIm-14 were able to grow (FIG. 7-b).
The next step was to determine whether the spliced product, as the result of trans-splicing of the ALSIIm (ALSIIm(N)—INn and ALSIIm(C)—INc) fusion proteins, would render E. coli ER2744 resistant to valine and SM. The first experiment was to test the effect of co-expression of ALSIIm(N)—INn and ALSIIm(C)—INc fusion proteins on cell growth in valine saturated M9 minimum medium. In a plating assay (see Section 4.), all transformed cells grew well on M9 medium in the absence of valine (FIG. 9A-a). […] (FIG. 9A-b, 9A-c) in the presence of valine. […] (FIG. 9A-c) or lower temperatures (data not shown) from a valine plate.

[2] = system: E. coli ER2744; assay: Quantitative liquid culture assay (OD600) of E. coli ER2744 in valine / SM M9 medium; format: cell-based; conditions: 30° C.
Procedure: A quantitative liquid culture assay was performed to verify the results obtained from the plating assay. The liquid assay was performed as follows. A single colony was used to inoculate LB medium supplemented with kanamycin and ampicillin at 37° C. for 4 hours. Expression was induced by 0.3 mM IPTG and cell cultures were shifted to 30° C. for another 2 hrs. Then, 200 μL of equivalent OD600 8.0 was spun down, washed one time with M9 medium and resuspended in 200 μl M9 medium. 40 μl was aliquoted into 2 ml of appropriate culture medium and grown for 24-72 hours before its OD600 was measured. The concentration for valine is 100 μg/ml and for SM is 50 μg/ml. At 30° C., all transformed cells grew equally well in M9 minimum medium (FIG. 9B). […] To further compare the growth kinetics for trans-splicing mediated cell growth to wild type ALSII mediated cell growth, a time course study was performed (FIG. 9C).

Molecule | cell growth on M9 plate in the presence of valine at both 30° C. and 37° C. ([1]; 100 μg/ml valine) | cell growth in valine saturated M9 liquid medium ([2]; 100 μg/ml valine) | cell growth on M9 plate with valine and herbicide SM ([1]; 100 μg/ml valine and 50 μg/ml SM, 30° C., 0.3 mM IPTG) | cell growth on M9 plate supplemented with valine ([1]; 100 μg/ml valine, 30° C., 0.3 mM IPTG) | cell growth in valine M9 liquid medium containing SM ([2]; 100 μg/ml valine, 50 μg/ml SM) | growth rate, time course study ([2]; M9 medium with 100 μg/ml valine)
ALSIIm(N)—INn: fusion of ALSIIm N-terminal 327 residues and Ssp DnaE intein N-terminal 123 residues | did not grow | did not rescue cell growth |  |  |  | 
ALSII: wild type E. coli acetolactate synthase II expressed from plasmid pALSII (protein) MNGAQWVVHALRAQGVNTVFGYPGGAIMPVYDALYDGGVEHLLCRHEQGAAMAAIGYARATGKTGVCIATSGPGATNLITGLADALLDSIPVVAITGQVSAPFIGTDAFQEVDVLGLSLACTKHSFLVQSLEELPRIMAEAFDVACSGRPGPVLVDIPKDIQLASGDLEPWFTTVENEVTFPHAEVEQARQMLAKAQKPMLYVGGGVGMAQAVPALREFLAATKMPATCTLKGLGAVEADYPYYLGMLGMHGTKAANFAVQECDLLIAVGARFDDRVTGKLNTFAPHASVIHMDIDPAEMNKLRQAHVALQGDLNALLPALQQPLNQYDWQQHCAQLRDEHSWRYDHPGDAIYAPLLLKQLSDRKPADCVVTTDVGQHQMWAAQHIAHTRPENFITSSGLGTMGFGLPAAVGAQVARPNDTVVCISGDGSFMMNVQELGTVKRKQLPLKIVLLDNQRLGMVRQWQQLFFQERYSETTLTDNPDFLMLASAFGIHGQHITRKDQVEAALDTMLNSDGPYLLHVSIDELENVWPLVPPGASNSEMLEKLS | rescued the cells growth | allowed cells to grow | could not rescue cell growth | able to grow | no growth | fastest growth rate
